Results published in US20160039896A1 (Stanford University, published 2016).
Where a chain is given by its changes, count along the chain named. Numbers in names are those of the source. Each block holds one binder with its values, some of them ahead of it.

Key:
[1] = molecular target: VEGFR2 and αvβ3 integrin on HUVEC; assay: flow cytometry titration on HUVEC (VEGFR2 and αvβ3 integrin), anti-FLAG detection
[2] = molecular target: VEGFR2 and αvβ3 integrin on SVR angiosarcoma cells (murine); assay: flow cytometry titration on SVR murine angiosarcoma cells (VEGFR2 and αvβ3 integrin), anti-FLAG detection
[3] = molecular target: U87MG human glioblastoma cells; assay: flow cytometry titration on U87MG cells, anti-FLAG detection
[4] = molecular target: T1, recombinant human VEGFR2 extracellular domain (human, UniProt P35968 20-764); assay: yeast surface display of individual clones, soluble VEGFR2
T1 construct: extracellular domain; Bought (Calbiochem); also called KDR; Flk-1

[5] = molecular target: VEGFR2 and αvβ3 integrin on HUVEC; assay: cell-based or functional assay

T1 sequence (P35968 20-764): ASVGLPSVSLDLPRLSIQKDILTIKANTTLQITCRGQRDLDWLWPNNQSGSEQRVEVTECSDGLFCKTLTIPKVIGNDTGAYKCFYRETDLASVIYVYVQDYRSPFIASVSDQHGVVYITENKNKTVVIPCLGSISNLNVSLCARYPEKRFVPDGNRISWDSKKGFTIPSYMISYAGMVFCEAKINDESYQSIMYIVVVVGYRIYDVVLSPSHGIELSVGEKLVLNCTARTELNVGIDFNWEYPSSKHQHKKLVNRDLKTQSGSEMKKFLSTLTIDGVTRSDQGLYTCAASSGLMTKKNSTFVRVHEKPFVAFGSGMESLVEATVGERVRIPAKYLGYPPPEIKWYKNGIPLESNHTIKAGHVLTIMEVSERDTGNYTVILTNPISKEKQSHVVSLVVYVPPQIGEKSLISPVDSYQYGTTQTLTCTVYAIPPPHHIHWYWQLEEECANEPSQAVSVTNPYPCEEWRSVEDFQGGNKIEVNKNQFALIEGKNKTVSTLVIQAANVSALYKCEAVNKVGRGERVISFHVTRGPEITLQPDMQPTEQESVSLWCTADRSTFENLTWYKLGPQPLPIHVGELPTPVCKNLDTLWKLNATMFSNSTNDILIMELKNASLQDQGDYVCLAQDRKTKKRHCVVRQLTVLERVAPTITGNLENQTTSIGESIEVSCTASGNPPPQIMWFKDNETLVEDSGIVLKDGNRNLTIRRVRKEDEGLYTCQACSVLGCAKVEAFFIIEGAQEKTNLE

Kd [1]: 12 nM
Kd [2]: 18 nM
Kd [3]: 15.6 nM
B1: scVEGFrgd-7H (ligand)
chain: EVVKAMDVYQRSYCHPIETLVDIFQEYPDEIEYIFKPSCVPLMRCGGCCNDAGLECVPTEESNITMQIMRIKPHQGQHIGEMSFLQHNKCECRPKKDGSTSGSGKSSEGKGEVVKFMDVYQRSYCHPIETLVDIFQEYPDEIEYAFKPSCVPLMRCGGCCNDEGLECVPTEESNITMQIMRPGGRGDSAYHIGEMSFLQHNKCECRPKKDTR

Kd [1]: 45 nM
Kd [2]: 31 nM
Kd [3]: 29 nM
B2: scVEGFrgd-7P (ligand)
chain: B1 chain with G183A, G184S, A189P, Y190P

binding result [4]: binds
B3: scVEGFrgd-7B-K (ligand)
chain: EVVKAMDVYQRSYCHPIETLVDILQEYPDEIEYIFKPSCVPLMRCGGCCNDAGLECVPTEESNITMQIMRIKPYQGQHIGEMSFLQHNKCECRPKKDGSTSGSGKSSEGKGEVVRFMDVYQRSYCHPIETLVDIFQEYPDEIEYAFKPSCVPLMRCGGCCNHEGLECVPTEESNITMQIMRPHDRGDAGVHIGEMSFLQHNKCECRPKED
notes: built from the parts; F17A, E64A and I46A are kept because the RGD libraries were made from scVEGFmut

binding result [4]: binds
B4: scVEGFrgd-7B-C (ligand)
chain: B3 chain with R11G, D51N, D97G, R115K, Q178R, E209R
notes: as for B3

binding result [4]: binds
B5: scVEGFrgd-7B-A (ligand)
chain: B3 chain with I68V, Q75R, R115K, H162N, K208R, E209K
notes: as for B3

Kd [1]: 6 nM
Kd [2]: 37 nM
inhibition of VEGF-induced autophosphorylation of VEGFR-2 in HUVEC, in the presence of vitronectin [5]: 80%
Kd [3]: 13.9 nM
B6: scVEGFrgd-7I (ligand)
chain: EVVKAMDVYQRSYCHPIETLVDIFQEYPDEIEYIFKPSCVPLMRCGGCCNDAGLECVPTEESNITMQIMRIKPHQGQHIGEMSFLQHNKCECRPKKDGSTSGSGKSSEGKGEVVKFMDVYQRSYCHPIETLVDIFQEYPDEIEYAFKPSCVPLMRCGGCCNDEGLECVPTEESNITMQIMRPSVRRGDSPASHIGEMSFLQHNKCECRPKKDTR
